Reference: the MegaScale stability set (Tsuboyama et al. 2023)

B1: r11_951_TrROS_Hall (parent)
chain: KKKYVIKVYFEDTGKEVEIEAESKEEALEAAKRLAEELGLKIKKVEIYP

Variants of: B1
Assay: folding stability dG (cDNA display proteolysis); higher = more stable
Conditions: PBS, room temperature

Variant | folding stability dG [kcal/mol]
KKKYVINVYFEDTGKEVEIEAESKEEALEAAKRLAEELGLKIKKVEIYP [K7N] | 3.9
KKKYVIPVYFEDTGKEVEIEAESKEEALEAAKRLAEELGLKIKKVEIYP [K7P] | 1.45
KKKYVIQVYFEDTGKEVEIEAESKEEALEAAKRLAEELGLKIKKVEIYP [K7Q] | 3.75
KKKYVIRVYFEDTGKEVEIEAESKEEALEAAKRLAEELGLKIKKVEIYP [K7R] | 4.64
KKKYVISVYFEDTGKEVEIEAESKEEALEAAKRLAEELGLKIKKVEIYP [K7S] | 3.73
KKKYVITVYFEDTGKEVEIEAESKEEALEAAKRLAEELGLKIKKVEIYP [K7T] | 4.07
KKKYVIVVYFEDTGKEVEIEAESKEEALEAAKRLAEELGLKIKKVEIYP [K7V] | 4.1
KKKYVIWVYFEDTGKEVEIEAESKEEALEAAKRLAEELGLKIKKVEIYP [K7W] | 4.45
KKKYVIYVYFEDTGKEVEIEAESKEEALEAAKRLAEELGLKIKKVEIYP [K7Y] | 4.13
KKKYVIKAYFEDTGKEVEIEAESKEEALEAAKRLAEELGLKIKKVEIYP [V8A] | 3.59
KKKYVIKCYFEDTGKEVEIEAESKEEALEAAKRLAEELGLKIKKVEIYP [V8C] | 3.91
KKKYVIKDYFEDTGKEVEIEAESKEEALEAAKRLAEELGLKIKKVEIYP [V8D] | 1.26
KKKYVIKEYFEDTGKEVEIEAESKEEALEAAKRLAEELGLKIKKVEIYP [V8E] | 0.978
KKKYVIKFYFEDTGKEVEIEAESKEEALEAAKRLAEELGLKIKKVEIYP [V8F] | 4.61
KKKYVIKGYFEDTGKEVEIEAESKEEALEAAKRLAEELGLKIKKVEIYP [V8G] | 2.51
KKKYVIKHYFEDTGKEVEIEAESKEEALEAAKRLAEELGLKIKKVEIYP [V8H] | 1.38
KKKYVIKIYFEDTGKEVEIEAESKEEALEAAKRLAEELGLKIKKVEIYP [V8I] | 4.47
KKKYVIKKYFEDTGKEVEIEAESKEEALEAAKRLAEELGLKIKKVEIYP [V8K] | 0.16
KKKYVIKLYFEDTGKEVEIEAESKEEALEAAKRLAEELGLKIKKVEIYP [V8L] | 4.25
KKKYVIKMYFEDTGKEVEIEAESKEEALEAAKRLAEELGLKIKKVEIYP [V8M] | 4.28
KKKYVIKNYFEDTGKEVEIEAESKEEALEAAKRLAEELGLKIKKVEIYP [V8N] | 1.36
KKKYVIKPYFEDTGKEVEIEAESKEEALEAAKRLAEELGLKIKKVEIYP [V8P] | 0.881

Variant | folding stability dG [kcal/mol]
KKKYVIKQYFEDTGKEVEIEAESKEEALEAAKRLAEELGLKIKKVEIYP [V8Q] | 1.52
KKKYVIKRYFEDTGKEVEIEAESKEEALEAAKRLAEELGLKIKKVEIYP [V8R] | 0.173
KKKYVIKSYFEDTGKEVEIEAESKEEALEAAKRLAEELGLKIKKVEIYP [V8S] | 1.87
KKKYVIKTYFEDTGKEVEIEAESKEEALEAAKRLAEELGLKIKKVEIYP [V8T] | 2.91
KKKYVIKWYFEDTGKEVEIEAESKEEALEAAKRLAEELGLKIKKVEIYP [V8W] | 4.03
KKKYVIKYYFEDTGKEVEIEAESKEEALEAAKRLAEELGLKIKKVEIYP [V8Y] | 4.22
KKKYVIKVAFEDTGKEVEIEAESKEEALEAAKRLAEELGLKIKKVEIYP [Y9A] | 3.91
KKKYVIKVCFEDTGKEVEIEAESKEEALEAAKRLAEELGLKIKKVEIYP [Y9C] | 3.95
KKKYVIKVDFEDTGKEVEIEAESKEEALEAAKRLAEELGLKIKKVEIYP [Y9D] | 3.41
KKKYVIKVEFEDTGKEVEIEAESKEEALEAAKRLAEELGLKIKKVEIYP [Y9E] | 4.28
KKKYVIKVFFEDTGKEVEIEAESKEEALEAAKRLAEELGLKIKKVEIYP [Y9F] | 4.25
KKKYVIKVGFEDTGKEVEIEAESKEEALEAAKRLAEELGLKIKKVEIYP [Y9G] | 3.74
KKKYVIKVHFEDTGKEVEIEAESKEEALEAAKRLAEELGLKIKKVEIYP [Y9H] | 4.26
KKKYVIKVIFEDTGKEVEIEAESKEEALEAAKRLAEELGLKIKKVEIYP [Y9I] | 4.35
KKKYVIKVKFEDTGKEVEIEAESKEEALEAAKRLAEELGLKIKKVEIYP [Y9K] | 3.98
KKKYVIKVLFEDTGKEVEIEAESKEEALEAAKRLAEELGLKIKKVEIYP [Y9L] | 4.26
KKKYVIKVMFEDTGKEVEIEAESKEEALEAAKRLAEELGLKIKKVEIYP [Y9M] | 4.4
KKKYVIKVNFEDTGKEVEIEAESKEEALEAAKRLAEELGLKIKKVEIYP [Y9N] | 3.87
KKKYVIKVPFEDTGKEVEIEAESKEEALEAAKRLAEELGLKIKKVEIYP [Y9P] | 1.42
KKKYVIKVQFEDTGKEVEIEAESKEEALEAAKRLAEELGLKIKKVEIYP [Y9Q] | 4.09
KKKYVIKVRFEDTGKEVEIEAESKEEALEAAKRLAEELGLKIKKVEIYP [Y9R] | 4.14
KKKYVIKVSFEDTGKEVEIEAESKEEALEAAKRLAEELGLKIKKVEIYP [Y9S] | 4.16

Variant | folding stability dG [kcal/mol]
KKKYVIKVTFEDTGKEVEIEAESKEEALEAAKRLAEELGLKIKKVEIYP [Y9T] | 4.22
KKKYVIKVVFEDTGKEVEIEAESKEEALEAAKRLAEELGLKIKKVEIYP [Y9V] | 4.3
KKKYVIKVWFEDTGKEVEIEAESKEEALEAAKRLAEELGLKIKKVEIYP [Y9W] | 4.86
KKKYVIKVYAEDTGKEVEIEAESKEEALEAAKRLAEELGLKIKKVEIYP [F10A] | 2.98
KKKYVIKVYCEDTGKEVEIEAESKEEALEAAKRLAEELGLKIKKVEIYP [F10C] | 3.67
KKKYVIKVYDEDTGKEVEIEAESKEEALEAAKRLAEELGLKIKKVEIYP [F10D] | 2.86
KKKYVIKVYEEDTGKEVEIEAESKEEALEAAKRLAEELGLKIKKVEIYP [F10E] | 2.52
KKKYVIKVYGEDTGKEVEIEAESKEEALEAAKRLAEELGLKIKKVEIYP [F10G] | 3.16
KKKYVIKVYHEDTGKEVEIEAESKEEALEAAKRLAEELGLKIKKVEIYP [F10H] | 2.56
KKKYVIKVYIEDTGKEVEIEAESKEEALEAAKRLAEELGLKIKKVEIYP [F10I] | 3.28
KKKYVIKVYKEDTGKEVEIEAESKEEALEAAKRLAEELGLKIKKVEIYP [F10K] | 1.65
KKKYVIKVYLEDTGKEVEIEAESKEEALEAAKRLAEELGLKIKKVEIYP [F10L] | 3.94
KKKYVIKVYMEDTGKEVEIEAESKEEALEAAKRLAEELGLKIKKVEIYP [F10M] | 3.73
KKKYVIKVYNEDTGKEVEIEAESKEEALEAAKRLAEELGLKIKKVEIYP [F10N] | 2.58
KKKYVIKVYPEDTGKEVEIEAESKEEALEAAKRLAEELGLKIKKVEIYP [F10P] | 2.07
KKKYVIKVYQEDTGKEVEIEAESKEEALEAAKRLAEELGLKIKKVEIYP [F10Q] | 2.23
KKKYVIKVYREDTGKEVEIEAESKEEALEAAKRLAEELGLKIKKVEIYP [F10R] | 1.98
KKKYVIKVYSEDTGKEVEIEAESKEEALEAAKRLAEELGLKIKKVEIYP [F10S] | 3.13
KKKYVIKVYTEDTGKEVEIEAESKEEALEAAKRLAEELGLKIKKVEIYP [F10T] | 3.32
KKKYVIKVYVEDTGKEVEIEAESKEEALEAAKRLAEELGLKIKKVEIYP [F10V] | 2.98
KKKYVIKVYWEDTGKEVEIEAESKEEALEAAKRLAEELGLKIKKVEIYP [F10W] | 4.44
KKKYVIKVYYEDTGKEVEIEAESKEEALEAAKRLAEELGLKIKKVEIYP [F10Y] | 3.94

Variant | folding stability dG [kcal/mol]
KKKYVIKVYFADTGKEVEIEAESKEEALEAAKRLAEELGLKIKKVEIYP [E11A] | 4.58
KKKYVIKVYFCDTGKEVEIEAESKEEALEAAKRLAEELGLKIKKVEIYP [E11C] | 4.63
KKKYVIKVYFDDTGKEVEIEAESKEEALEAAKRLAEELGLKIKKVEIYP [E11D] | 4.5
KKKYVIKVYFFDTGKEVEIEAESKEEALEAAKRLAEELGLKIKKVEIYP [E11F] | 4.94
KKKYVIKVYFGDTGKEVEIEAESKEEALEAAKRLAEELGLKIKKVEIYP [E11G] | 4.49
KKKYVIKVYFHDTGKEVEIEAESKEEALEAAKRLAEELGLKIKKVEIYP [E11H] | 4.83
KKKYVIKVYFIDTGKEVEIEAESKEEALEAAKRLAEELGLKIKKVEIYP [E11I] | 4.86
KKKYVIKVYFKDTGKEVEIEAESKEEALEAAKRLAEELGLKIKKVEIYP [E11K] | 4.64
KKKYVIKVYFLDTGKEVEIEAESKEEALEAAKRLAEELGLKIKKVEIYP [E11L] | 4.92
KKKYVIKVYFMDTGKEVEIEAESKEEALEAAKRLAEELGLKIKKVEIYP [E11M] | 4.8
KKKYVIKVYFNDTGKEVEIEAESKEEALEAAKRLAEELGLKIKKVEIYP [E11N] | 4.67
KKKYVIKVYFPDTGKEVEIEAESKEEALEAAKRLAEELGLKIKKVEIYP [E11P] | 3.62
KKKYVIKVYFQDTGKEVEIEAESKEEALEAAKRLAEELGLKIKKVEIYP [E11Q] | 4.79
KKKYVIKVYFRDTGKEVEIEAESKEEALEAAKRLAEELGLKIKKVEIYP [E11R] | 4.82
KKKYVIKVYFSDTGKEVEIEAESKEEALEAAKRLAEELGLKIKKVEIYP [E11S] | 4.63
KKKYVIKVYFTDTGKEVEIEAESKEEALEAAKRLAEELGLKIKKVEIYP [E11T] | 4.48
KKKYVIKVYFVDTGKEVEIEAESKEEALEAAKRLAEELGLKIKKVEIYP [E11V] | 4.83
KKKYVIKVYFYDTGKEVEIEAESKEEALEAAKRLAEELGLKIKKVEIYP [E11Y] | 4.83
KKKYVIKVYFEATGKEVEIEAESKEEALEAAKRLAEELGLKIKKVEIYP [D12A] | 4.41
KKKYVIKVYFECTGKEVEIEAESKEEALEAAKRLAEELGLKIKKVEIYP [D12C] | 4.38
KKKYVIKVYFEETGKEVEIEAESKEEALEAAKRLAEELGLKIKKVEIYP [D12E] | 4.31
KKKYVIKVYFEFTGKEVEIEAESKEEALEAAKRLAEELGLKIKKVEIYP [D12F] | 4.64

Variant | folding stability dG [kcal/mol]
KKKYVIKVYFEGTGKEVEIEAESKEEALEAAKRLAEELGLKIKKVEIYP [D12G] | 4.54
KKKYVIKVYFEHTGKEVEIEAESKEEALEAAKRLAEELGLKIKKVEIYP [D12H] | 4.49
KKKYVIKVYFEITGKEVEIEAESKEEALEAAKRLAEELGLKIKKVEIYP [D12I] | 4.66
KKKYVIKVYFEKTGKEVEIEAESKEEALEAAKRLAEELGLKIKKVEIYP [D12K] | 4.62
KKKYVIKVYFELTGKEVEIEAESKEEALEAAKRLAEELGLKIKKVEIYP [D12L] | 4.59
KKKYVIKVYFEMTGKEVEIEAESKEEALEAAKRLAEELGLKIKKVEIYP [D12M] | 4.55
KKKYVIKVYFENTGKEVEIEAESKEEALEAAKRLAEELGLKIKKVEIYP [D12N] | 4.42
KKKYVIKVYFEPTGKEVEIEAESKEEALEAAKRLAEELGLKIKKVEIYP [D12P] | 4.35
KKKYVIKVYFEQTGKEVEIEAESKEEALEAAKRLAEELGLKIKKVEIYP [D12Q] | 4.38
KKKYVIKVYFERTGKEVEIEAESKEEALEAAKRLAEELGLKIKKVEIYP [D12R] | 4.79
KKKYVIKVYFESTGKEVEIEAESKEEALEAAKRLAEELGLKIKKVEIYP [D12S] | 4.38
KKKYVIKVYFETTGKEVEIEAESKEEALEAAKRLAEELGLKIKKVEIYP [D12T] | 4.5
KKKYVIKVYFEVTGKEVEIEAESKEEALEAAKRLAEELGLKIKKVEIYP [D12V] | 4.34
KKKYVIKVYFEWTGKEVEIEAESKEEALEAAKRLAEELGLKIKKVEIYP [D12W] | 4.75
KKKYVIKVYFEYTGKEVEIEAESKEEALEAAKRLAEELGLKIKKVEIYP [D12Y] | 4.66
KKKYVIKVYFEDAGKEVEIEAESKEEALEAAKRLAEELGLKIKKVEIYP [T13A] | 4.42
KKKYVIKVYFEDCGKEVEIEAESKEEALEAAKRLAEELGLKIKKVEIYP [T13C] | 3.6
KKKYVIKVYFEDDGKEVEIEAESKEEALEAAKRLAEELGLKIKKVEIYP [T13D] | 4.11
